B1: adenosine receptor 2A (A2AR), endogenous (receptor, UniProt P29274 1-412, looked up)
chain: MPIMGSSVYITVELAIAVLAILGNVLVCWAVWLNSNLQNVTNYFVVSLAAADIAVGVLAIPFAITISTGFCAACHGCLFIACFVLVLTQSSIFSLLAIAIDRYIAIRIPLRYNGLVTGTRAKGIIAICWVLSFAIGLTPMLGWNNCGQPKEGKNHSQGCGEGQVACLFEDVVPMNYMVYFNFFACVLVPLLLMLGVYLRIFLAARRQLKQMESQPLPGERARSTLQKEVHAAKSLAIIVGLFALCWLPLHIINCFTFFCPDCSHAPLWLMYLAIVLSHTNSVVNPFIYAYRIREFRQTFRKIIRSHVLRQQEPFKAAGTSARVLAAHGSDGEQVSLRLNGHPPGVWANGSAPHPERRPNGYALGLVSGGSAQESQGNTGLPDVELLSHELKGVCPEPPGLDDPLAQDGAGVS
notes: adenosine receptor 2A (A2AR), endogenous in human primary CD4+ T cells and in Jurkat cells; also called A2a receptor; source: endogenous, human primary CD4+ T cell lysate; endogenous, Jurkat (Jurkat-vector and Jurkat-mutTRAX-FLAG) lysate
B2: translin‐associated factor‐X (TRAX), endogenous (natural protein, UniProt Q99598 1-290, looked up)
chain: MSNKEGSGGFRKRKHDNFPHNQRREGKDVNSSSPVMLAFKSFQQELDARHDKYERLVKLSRDITVESKRTIFLLHRITSAPDMEDILTESEIKLDGVRQKIFQVAQELSGEDMHQFHRAITTGLQEYVEAVSFQHFIKTRSLISMDEINKQLIFTTEDNGKENKTPSSDAQDKQFGTWRLRVTPVDYLLGVADLTGELMRMCINSVGNGDIDTPFEVSQFLRQVYDGFSFIGNTGPYEVSKKLYTLKQSLAKVENACYALKVRGSEIPKHMLADVFSVKTEMIDQEEGIS
notes: translin-associated factor X (TRAX), endogenous in human primary CD4+ T cells and in Jurkat cells; source: endogenous, human primary CD4+ T cell lysate; endogenous, Jurkat (Jurkat-vector) lysate
B4: FLAG‐tagged TRAX^(Q219A, Q223A) (natural protein, UniProt Q99598 1-290, looked up)
chain: MSNKEGSGGFRKRKHDNFPHNQRREGKDVNSSSPVMLAFKSFQQELDARHDKYERLVKLSRDITVESKRTIFLLHRITSAPDMEDILTESEIKLDGVRQKIFQVAQELSGEDMHQFHRAITTGLQEYVEAVSFQHFIKTRSLISMDEINKQLIFTTEDNGKENKTPSSDAQDKQFGTWRLRVTPVDYLLGVADLTGELMRMCINSVGNGDIDTPFEVSAFLRAVYDGFSFIGNTGPYEVSKKLYTLKQSLAKVENACYALKVRGSEIPKHMLADVFSVKTEMIDQEEGIS
notes: translin-associated factor X (TRAX) with Q219A and Q223A; also called mutTRAX‐FLAG; mutTRAX; source: Jurkat cells, lentivirus (Jurkat‐mutTRAX‐FLAG), in lysate

Legend:
[1] = target: B4; test: co-IP; Jurkat‐vector or Jurkat‐mutTRAX‐FLAG cells incubated with 30 µM GHCer or PBS at 37 °C for 1 h; immunoprecipitation with anti‐A2AR, anti‐TRAX or anti‐FLAG, western blot; settings: partners not purified
[2] = target: B2; test: as above; settings: partners not purified
[3] = target: B2; test: co-IP; human primary CD4+ T cells incubated with 30 µM GHCer or PBS at 37 °C for 1 h; immunoprecipitation with anti‐A2AR or anti‐TRAX, western blot with anti‐TRAX or anti‐A2AR; settings: partners not purified
[4] = target: B1; test: co-IP; Jurkat‐vector or Jurkat‐mutTRAX‐FLAG cells incubated with 30 µM GHCer or PBS at 37 °C for 1 h; immunoprecipitation with anti‐A2AR, anti‐TRAX or anti‐FLAG, western blot; settings: partners not purified
[5] = target: B1; test: co-IP; human primary CD4+ T cells incubated with 30 µM GHCer or PBS at 37 °C for 1 h; immunoprecipitation with anti‐A2AR or anti‐TRAX, western blot with anti‐TRAX or anti‐A2AR; settings: partners not purified
[6] = target: T1, A2AR fragment F (aa 291–412) (UniProt P29274 291-412); test: Luminex bead-based assay; A2AR‐His full length or fragments captured on Luminex beads conjugated with anti‐His antibody; TRAX in solution, detected by antibody and PE-conjugated antibody; with PBS, 30 µM GHCer or 30 µM GH‐biotin; PBS with 1% BSA, 37 °C, 60 min; signals normalised to full‐length A2AR/PBS/TRAX; settings: both partners purified
T1 construct: adenosine receptor 2A (A2AR), C-terminal fragment F, aa 291–412; source: Escherichia coli, His‐tagged recombinant protein

[7] = target: T2, full‐length recombinant A2AR protein (A2AR‐His, fragment A) (UniProt P29274 1-412); test: as above; settings: both partners purified
T2 construct: adenosine receptor 2A (A2AR), full-length (fragment A); the printed end of fragment F (aa 412) fits the human protein; captured on beads by an anti-His antibody; also called full‐length N‐His‐A2AR; A2AR‐full length; source: Escherichia coli, His‐tagged recombinant protein; not shown: His, N-terminal, kept

[8] = target: T3, A2AR fragment E (aa 291–393) (UniProt P29274 291-393); test: as above; settings: both partners purified
T3 construct: adenosine receptor 2A (A2AR), C-terminal fragment E, aa 291–393; source: Escherichia coli, His‐tagged recombinant protein

Binder: B1
- fold co-precipitated by anti‐FLAG with GHCer over PBS control [1]: 1.1 fold
- fold A2AR co-precipitated with GHCer over PBS control [2]: 2 fold
- fold A2AR co-precipitated with GHCer over PBS control [3]: 1.8 fold

Binder: B2
- fold TRAX co-precipitated with GHCer over PBS control [4]: 2.3 fold
- fold TRAX co-precipitated with GHCer over PBS control [5]: 2.1 fold

B3: recombinant TRAX (His‐tagged) (natural protein, UniProt Q99598 1-290, looked up)
chain: MSNKEGSGGFRKRKHDNFPHNQRREGKDVNSSSPVMLAFKSFQQELDARHDKYERLVKLSRDITVESKRTIFLLHRITSAPDMEDILTESEIKLDGVRQKIFQVAQELSGEDMHQFHRAITTGLQEYVEAVSFQHFIKTRSLISMDEINKQLIFTTEDNGKENKTPSSDAQDKQFGTWRLRVTPVDYLLGVADLTGELMRMCINSVGNGDIDTPFEVSQFLRQVYDGFSFIGNTGPYEVSKKLYTLKQSLAKVENACYALKVRGSEIPKHMLADVFSVKTEMIDQEEGIS
notes: translin-associated factor X (TRAX); source: Escherichia coli, His‐tagged recombinant protein
- fold binding signal with GHCer over fragment A without GHCer [6]: 1.8 fold
- fold binding signal with 30 µM GHCer over PBS control [7]: 1.6 fold
- fold binding signal with GHCer over fragment A without GHCer [7]: 1.5 fold
- fold binding signal with GHCer over fragment A without GHCer [8]: 2.3 fold

Binder: B4
- fold co-precipitated by anti‐A2AR with GHCer over PBS control [4]: 1 fold

— publication PMC12279200, “Tumor‐Associated Glycan Exploits Adenosine Receptor 2A Signaling to Facilitate Immune Evasion” (Advanced Science, 2025)
